B1: C0032 (Anti-oxMIF-scFv fused to an anti-CD3-scFv, BiTE) (bispecific antibody)
chain: DIQMTQSPSSLSASVGDRVTITCRSSQRIMTYLNWYQQKPGKAPKLLIFVASHSQSGVPSRFRGSGSETDFTLTISGLQPEDSATYYCQQSFWTPLTFGGGTKVEIKGGGGSGGGGSGGGGSEVQLLESGGGLVQPGGSLRLSCAASGFTFSIYSMNWVRQAPGKGLEWVSSIGSSGGTTYYADSVKGRFTISRDNSKNTLYLQMNSLRAEDTAVYYCAGSQWLYGMDVWGQGTTVTVSSGGGGSQVQLVQSGAEVKKPGASVKVSCKASGYTFTRYTMHWVRQAPGQGLEWMGYINPSRGYTNYNQKFKDRVTLTTDKSSSTAYMELSSLRSEDTAVYYCARYYDDHYSLDYWGQGTLVTVSSGGSGGSGGSGGSGGSDIQMTQSPSSLSASVGDRVTITCSASSSVSYMNWYQQKPGKAPKRLIYDTSKLASGVPSRFSGSGSGTDFTLTISSLQPEDFATYYCQQWSSNPFTFGQGTKLEIKAAAEQKLISEEDLSAWSHPQFEK
notes: also called anti-oxMIF/CD3 BiTE
B2: C0006 (Anti-oxMIF/CD3 Crossmab (CH1-CL), Crossmab) (bispecific antibody, human IgG1, kappa)
light 1: DIQMTQSPSSLSASVGDRVTITCRSSQRIMTYLNWYQQKPGKAPKLLIFVASHSQSGVPSRFRGSGSETDFTLTISGLQPEDSATYYCQQSFWTPLTFGGGTKVEIKRTVAAPSVFIFPPSDEQLKSGTASVVCLLNNFYPREAKVQWKVDNALQSGNSQESVTEQDSKDSTYSLSSTLTLSKADYEKHKVYACEVTHQGLSSPVTKSFNRGEC
heavy 1: not shown
heavy 2: not shown
light 2: DIQMTQSPSSLSASVGDRVTITCSASSSVSYMNWYQQKPGKAPKRLIYDTSKLASGVPSRFSGSGSGTDFTLTISSLQPEDFATYYCQQWSSNPFTFGQGTKLEIKSSASTKGPSVFPLAPSSKSTSGGTAALGCLVKDYFPEPVTVSWNSGALTSGVHTFPAVLQSSGLYSLSSVVTVPSSSLGTQTYICNVNHKPSNTKVDKKVEPKSC
B3: C0039 (Full anti-oxMIF IgG with anti-CD3 scFv fused to light chain, IgG(lc)-scFv) (bispecific antibody)
heavy: not shown
light: DIQMTQSPSSLSASVGDRVTITCRSSQRIMTYLNWYQQKPGKAPKLLIFVASHSQSGVPSRFRGSGSETDFTLTISGLQPEDSATYYCQQSFWTPLTFGGGTKVEIKRTVAAPSVFIFPPSDEQLKSGTASVVCLLNNFYPREAKVQWKVDNALQSGNSQESVTEQDSKDSTYSLSSTLTLSKADYEKHKVYACEVTHQGLSSPVTKSFNRGECGGGGSGGGGSGGGGSQVQLVQSGAEVKKPGASVKVSCKASGYTFTRYTMHWVRQAPGQGLEWMGYINPSRGYTNYNQKFKDRVTLTTDKSSSTAYMELSSLRSEDTAVYYCARYYDDHYSLDYWGQGTLVTVSSGGSGGSGGSGGSGGSDIQMTQSPSSLSASVGDRVTITCSASSSVSYMNWYQQKPGKAPKRLIYDTSKLASGVPSRFSGSGSGTDFTLTISSLQPEDFATYYCQQWSSNPFTFGQGTKLEIK
notes: also called IgG(Ic)-scFv
B4: C0007 (Full anti-oxMIF IgG with anti-CD3 scFv fused to heavy chain, v IgG1-scFv fusion) (bispecific antibody)
heavy: not shown
light: B2 light 1
B5: C0008 (full anti-oxMIF IgG, IgG1) (antibody, V domains shown)
VH: EVQLLESGGGLVQPGGSLRLSCAASGFTFSIYSMNWVRQAPGKGLEWVSSIGSSGGTTYYADSVKGRFTISRDNSKNTLYLQMNSLRAEDTAVYYCAGSQWLYGMDVWGQGTTVTVSS
VL: DIQMTQSPSSLSASVGDRVTITCRSSQRIMTYLNWYQQKPGKAPKLLIFVASHSQSGVPSRFRGSGSETDFTLTISGLQPEDSATYYCQQSFWTPLTFGGGTKVEIKR
notes: Monospecific control antibody; also called anti-oxMIF monospecific control antibody
B6: C0036 (Anti-oxMIF Fab fused to anti-CD3 scFv (HC); format: Fab-scFv) (bispecific antibody)
heavy: EVQLLESGGGLVQPGGSLRLSCAASGFTFSIYSMNWVRQAPGKGLEWVSSIGSSGGTTYYADSVKGRFTISRDNSKNTLYLQMNSLRAEDTAVYYCAGSQWLYGMDVWGQGTTVTVSSASTKGPSVFPLAPSSKSTSGGTAALGCLVKDYFPEPVTVSWNSGALTSGVHTFPAVLQSSGLYSLSSVVTVPSSSLGTQTYICNVNHKPSNTKVDKRVEPKSCGGGGSGGGGSGGGGSQVQLVQSGAEVKKPGASVKVSCKASGYTFTRYTMHWVRQAPGQGLEWMGYINPSRGYTNYNQKFKDRVTLTTDKSSSTAYMELSSLRSEDTAVYYCARYYDDHYSLDYWGQGTLVTVSSGGSGGSGGSGGSGGSDIQMTQSPSSLSASVGDRVTITCSASSSVSYMNWYQQKPGKAPKRLIYDTSKLASGVPSRFSGSGSGTDFTLTISSLQPEDFATYYCQQWSSNPFTFGQGTKLEIKAAAEQKLISEEDLAAHHHHHH
light: B2 light 1
B7: C0037 (Anti-oxMIF Fab fused to two anti-CD3 scFv, format: Fab-(scFv)2) (bispecific antibody)
heavy: B6 heavy
light: DIQMTQSPSSLSASVGDRVTITCRSSQRIMTYLNWYQQKPGKAPKLLIFVASHSQSGVPSRFRGSGSETDFTLTISGLQPEDSATYYCQQSFWTPLTFGGGTKVEIKRTVAAPSVFIFPPSDEQLKSGTASVVCLLNNFYPREAKVQWKVDNALQSGNSQESVTEQDSKDSTYSLSSTLTLSKADYEKHKVYACEVTHQGLSSPVTKSFNRGECGGGSGGGSGGGSQVQLVQSGAEVKKPGASVKVSCKASGYTFTRYTMHWVRQAPGQGLEWMGYINPSRGYTNYNQKFKDRVTLTTDKSSSTAYMELSSLRSEDTAVYYCARYYDDHYSLDYWGQGTLVTVSSGGSGGSGGSGGSGGSDIQMTQSPSSLSASVGDRVTITCSASSSVSYMNWYQQKPGKAPKRLIYDTSKLASGVPSRFSGSGSGTDFTLTISSLQPEDFATYYCQQWSSNPFTFGQGTKLEIKASAWSHPQFEK
B8: C0038 (Anti-oxMIF Fab and anti-CD3 scFv fused to Fc, Fab-scFv-Fc) (bispecific antibody, human IgG1, kappa)
light: B2 light 1
heavy: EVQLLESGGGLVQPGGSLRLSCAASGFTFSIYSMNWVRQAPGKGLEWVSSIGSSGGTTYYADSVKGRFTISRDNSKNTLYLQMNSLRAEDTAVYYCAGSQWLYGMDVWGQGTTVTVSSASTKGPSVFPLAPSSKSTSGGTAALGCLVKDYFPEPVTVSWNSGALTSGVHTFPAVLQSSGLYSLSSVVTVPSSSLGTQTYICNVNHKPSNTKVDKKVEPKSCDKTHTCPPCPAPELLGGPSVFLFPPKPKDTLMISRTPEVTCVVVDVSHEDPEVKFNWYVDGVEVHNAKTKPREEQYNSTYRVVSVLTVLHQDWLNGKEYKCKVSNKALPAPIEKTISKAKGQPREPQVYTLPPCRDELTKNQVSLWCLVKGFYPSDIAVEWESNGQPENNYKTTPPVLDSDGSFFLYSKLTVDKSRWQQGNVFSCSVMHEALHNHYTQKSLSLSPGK
chain: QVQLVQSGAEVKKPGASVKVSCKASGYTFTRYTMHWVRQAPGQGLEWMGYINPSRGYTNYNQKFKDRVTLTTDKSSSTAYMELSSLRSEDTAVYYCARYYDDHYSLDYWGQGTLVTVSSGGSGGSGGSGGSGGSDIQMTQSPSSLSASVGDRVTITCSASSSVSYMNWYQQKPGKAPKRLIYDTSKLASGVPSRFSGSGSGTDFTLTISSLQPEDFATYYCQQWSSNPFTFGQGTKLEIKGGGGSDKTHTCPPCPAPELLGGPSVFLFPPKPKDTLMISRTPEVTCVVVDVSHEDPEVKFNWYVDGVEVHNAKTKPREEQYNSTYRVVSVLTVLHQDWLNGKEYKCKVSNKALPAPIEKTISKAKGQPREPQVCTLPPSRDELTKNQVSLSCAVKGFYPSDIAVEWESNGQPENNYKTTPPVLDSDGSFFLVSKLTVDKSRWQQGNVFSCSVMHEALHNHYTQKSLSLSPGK
B9: C0033 (Variable domains of anti-oxMIF and anti-CD3 fused in a row (VL1-VH2-VL2-VH1, TandAb)) (bispecific antibody)
chain: DIQMTQSPSSLSASVGDRVTITCSASSSVSYMNWYQQKPGKAPKRLIYDTSKLASGVPSRFSGSGSGTDFTLTISSLQPEDFATYYCQQWSSNPFTFGQGTKLEIKGGSGGSEVQLLESGGGLVQPGGSLRLSCAASGFTFSIYSMNWVRQAPGKGLEWVSSIGSSGGTTYYADSVKGRFTISRDNSKNTLYLQMNSLRAEDTAVYYCAGSQWLYGMDVWGQGTTVTVSSGGSGGSDIQMTQSPSSLSASVGDRVTITCRSSQRIMTYLNWYQQKPGKAPKLLIFVASHSQSGVPSRFRGSGSETDFTLTISGLQPEDSATYYCQQSFWTPLTFGGGTKVEIKGGSGGSQVQLVQSGAEVKKPGASVKVSCKASGYTFTRYTMHWVRQAPGQGLEWMGYINPSRGYTNYNQKFKDRVTLTTDKSSSTAYMELSSLRSEDTAVYYCARYYDDHYSLDYWGQGTLVTVSSAAAEQKLISEEDLSAWSHPQFEK

What was measured:
[1] = molecular target: T1, Recombinant human MIF, immobilized (transforming MIF to oxMIF) (human, UniProt P14174 2-115); experiment: ELISA, immobilized recombinant human MIF (oxMIF), protein L-HRP detection, 4-parameter fit
T1 construct: also called immobilized MIF (oxMIF); HuMIF
T1 sequence (P14174 2-115 limits assumed): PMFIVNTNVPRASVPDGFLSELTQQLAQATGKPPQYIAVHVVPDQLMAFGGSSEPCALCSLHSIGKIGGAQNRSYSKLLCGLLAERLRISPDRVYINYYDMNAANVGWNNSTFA
Procedure: Recombinant human MIF (1 μg/ml) diluted in PBS was immobilized into microwell plates (transforming MIF to oxMIF according to Thiele M. et al., 2015, J Immunol 2015; 195:2343-2352). After blocking, the bispecific antibodies were added to the plates at different concentrations. Bound bispecific antibodies were detected using protein L-HRP conjugate. Plates were developed by adding TMB and chromogenic reaction was stopped with H₂SO₄. OD was measured at 450 nm.
EC50 values of the binding curves, which reflect rough KD estimates, were calculated by 4-parameter fit and are shown in Table 5.

[2] = molecular target: T1, Recombinant human MIF, immobilized …; experiment: SPR, Biacore T200, HuMIF immobilized on CM5 chip, single cycle kinetics, 1:1 Langmuir model
Procedure: The affinity of the antibodies was determined using a Biacore™ T200 device. HuMIF was immobilized onto CM5 sensor chips and anti-oxMIF bispecific entities were injected at different concentrations in running buffer (HBS-EP plus 0.1% BSA) to generate single cycle kinetic profiles.

[3] = molecular target: T2, native CD3 on CD3-positive Jurkat T cells (UniProt P07766 23-207; P04234 22-171; P09693 23-182); experiment: flow cytometry on viable CD3+ Jurkat T cells, antibody at 70 nM, goat anti-human IgG (H+L) Alexa Fluor 488
T2 construct: whole, on cells; also called functional CD3 (CD3+)
T2 sequence (P07766 23-207, chain 1 of 3): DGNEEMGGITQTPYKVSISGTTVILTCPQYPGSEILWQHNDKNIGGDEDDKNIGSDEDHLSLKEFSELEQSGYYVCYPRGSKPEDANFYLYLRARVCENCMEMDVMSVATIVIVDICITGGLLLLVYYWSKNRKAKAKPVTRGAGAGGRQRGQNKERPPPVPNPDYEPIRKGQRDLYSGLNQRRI
T2 sequence (P04234 22-171, chain 2 of 3): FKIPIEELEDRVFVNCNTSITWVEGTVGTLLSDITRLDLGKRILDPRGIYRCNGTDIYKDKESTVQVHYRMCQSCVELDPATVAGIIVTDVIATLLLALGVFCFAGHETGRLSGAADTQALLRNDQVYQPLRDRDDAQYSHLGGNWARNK
T2 sequence (P09693 23-182, chain 3 of 3): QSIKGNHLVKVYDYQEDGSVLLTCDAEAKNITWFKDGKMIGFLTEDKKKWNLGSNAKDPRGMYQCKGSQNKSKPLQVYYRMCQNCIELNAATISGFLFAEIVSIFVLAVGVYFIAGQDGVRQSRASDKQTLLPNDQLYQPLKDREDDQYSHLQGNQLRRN
Procedure: CD3 positive Jurkat T-cells, which express functional CD3 (CD3+) were incubated with bispecific antibodies, C0008 (anti-oxMIF monospecific control antibody), a non-specific isotype control antibody (Isotype) at a concentration of 70 nM or without antibody (secondary ab only). Bound antibodies were detected by a goat anti-human IgG (H+L) Alexa-Fluor 488 conjugate (secondary antibody). 7AAD was used to label dead cells and samples were analysed by FACS.

Row | Binder | EC50 [1] [nM] | Kd [2] [nM] | binding result [3]
1 | B1 | 4 | 4.3 | binds
2 | B2 | 4.6 | 7.2 | binds
3 | B3 | 0.3 | 1 | binds
4 | B4 | 0.3 | 0.61 | binds
5 | B5 |  |  | no binding (tested: 70 nM)
6 | B6 | 2.3 | 2.3 | 
7 | B7 | 3.4 | 5.9 | 
8 | B8 | 4.6 | 9.4 | 
9 | B9 | 1.9 | 4.8 | 
